Assay results taken from IntAct's records for PubMed 11283256.

B1: Serine/threonine-protein kinase MRCK alpha (Homo sapiens), Q5VT25 (parent)
chain: MSGEVRLRQLEQFILDGPAQTNGQCFSVETLLDILICLYDECNNSPLRREKNILEYLEWAKPFTSKVKQMRLHREDFEILKVIGRGAFGEVAVVKLKNADKVFAMKILNKWEMLKRAETACFREERDVLVNGDNKWITTLHYAFQDDNNLYLVMDYYVGGDLLTLLSKFEDRLPEDMARFYLAEMVIAIDSVHQLHYVHRDIKPDNILMDMNGHIRLADFGSCLKLMEDGTVQSSVAVGTPDYISPEILQAMEDGKGRYGPECDWWSLGVCMYEMLYGETPFYAESLVETYGKIMNHKERFQFPAQVTDVSENAKDLIRRLICSREHRLGQNGIEDFKKHPFFSGIDWDNIRNCEAPYIPEVSSPTDTSNFDVDDDCLKNSETMPPPTHTAFSGHHLPFVGFTYTSSCVLSDRSCLRVTAGPTSLDLDVNVQRTLDNNLATEAYERRIKRLEQEKLELSRKLQESTQTVQALQYSTVDGPLTASKDLEIKNLKEEIEKLRKQVTESSHLEQQLEEANAVRQELDDAFRQIKAYEKQIKTLQQEREDLNKELVQASERLKNQSKELKDAHCQRKLAMQEFMEINERLTELHTQKQKLARHVRDKEEEVDLVMQKVESLRQELRRTERAKKELEVHTEALAAEASKDRKLREQSEHYSKQLENELEGLKQKQISYSPGVCSIEHQQEITKLKTDLEKKSIFYEEELSKREGIHANEIKNLKKELHDSEGQQLALNKEIMILKDKLEKTRRESQSEREEFESEFKQQYEREKVLLTEENKKLTSELDKLTTLYENLSIHNQQLEEEVKDLADKKESVAHWEAQITEIIQWVSDEKDARGYLQALASKMTEELEALRNSSLGTRATDMPWKMRRFAKLDMSARLELQSALDAEIRAKQAIQEELNKVKASNIITECKLKDSEKKNLELLSEIEQLIKDTEELRSEKGIEHQDSQHSFLAFLNTPTDALDQFERSPSCTPASKGRRTVDSTPLSVHTPTLRKKGCPGSTGFPPKRKTHQFFVKSFTTPTKCHQCTSLMVGLIRQGCSCEVCGFSCHITCVNKAPTTCPVPPEQTKGPLGIDPQKGIGTAYEGHVRIPKPAGVKKGWQRALAIVCDFKLFLYDIAEGKASQPSVVISQVIDMRDEEFSVSSVLASDVIHASRKDIPCIFRVTASQLSASNNKCSILMLADTENEKNKWVGVLSELHKILKKNKFRDRSVYVPKEAYDSTLPLIKTTQAAAIIDHERIALGNEEGLFVVHVTKDEIIRVGDNKKIHQIELIPNDQLVAVISGRNRHVRLFPMSALDGRETDFYKLSETKGCQTVTSGKVRHGALTCLCVAMKRQVLCYELFQSKTRHRKFKEIQVPYNVQWMAIFSEQLCVGFQSGFLRYPLNGEGNPYSMLHSNDHTLSFIAHQPMDAICAVEISSKEYLLCFNSIGIYTDCQGRRSRQQELMWPANPSSCCYNAPYLSVYSENAVDIFDVNSMEWIQTLPLKKVRPLNNEGSLNLLGLETIRLIYFKNKMAEGDELVVPETSDNSRKQMVRNINNKRRYSFRVPEEERMQQRREMLRDPEMRNKLISNPTNFNHIAHMGPGDGIQILKDLPMNPRPQESRTVFSGSVSIPSITKSRPEPGRSMSASSGLSARSSAQNGSALKREFSGGSYSAKRQPMPSPSEGSLSSGGMDQGSDAPARDFDGEDSDSPRHSTASNSSNLSSPPSPASPRKTKSLSLESTDRGSWDP
partner: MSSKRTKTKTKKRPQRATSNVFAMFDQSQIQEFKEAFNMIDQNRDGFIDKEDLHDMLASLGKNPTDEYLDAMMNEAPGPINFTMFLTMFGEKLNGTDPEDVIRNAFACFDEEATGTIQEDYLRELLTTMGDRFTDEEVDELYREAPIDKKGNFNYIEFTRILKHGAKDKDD

Variants of: B1
Details: with ml12a_human MYL12A

Variant	effect of a mutation on the interaction
K106A	decreasing interaction
S234A	decreasing interaction
T240A	decreasing interaction
T403A	decreasing interaction
